Assay results reported in publication PMC5601083.

Molecular target: T1, RbsR (Serratia sp. ATCC39006) (UniProt A0A2I5T2K0)
T1 sequence: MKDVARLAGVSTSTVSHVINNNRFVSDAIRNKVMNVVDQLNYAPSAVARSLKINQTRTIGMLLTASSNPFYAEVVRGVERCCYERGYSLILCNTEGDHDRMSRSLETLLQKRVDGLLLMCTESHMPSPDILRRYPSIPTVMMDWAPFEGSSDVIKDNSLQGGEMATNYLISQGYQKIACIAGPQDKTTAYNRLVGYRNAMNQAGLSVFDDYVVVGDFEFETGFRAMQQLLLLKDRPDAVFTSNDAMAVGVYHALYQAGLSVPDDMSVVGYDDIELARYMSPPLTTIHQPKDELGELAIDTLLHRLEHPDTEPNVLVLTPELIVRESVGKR
Experiment: EMSA
Settings: complete band shift at 14 nM RbsR (protein:DNA 2.8:1); 10% glycerol, 10 mM Tris pH 8.0, 1 mM DTT, 10 mM KCl, 0.5 mM EDTA, BSA (printed 20 ug m-1), 5 nM probe, 30 min on ice; 7.5% native gel in TGE at 4 C

rbsD upstream probe (LUEGO)
binding: 14 nM
